From paper PMC11335225 come the findings set out here.

Residue numbers refer to the chain shown, from its start. Numbers in names are those of the source.

For test [1], the target named is flag-tagged KV7.2 channel subunit (UniProt O43526).
The target is the same in test [2]. This is another data set of the same source.

Sequence of UniProt O43526 (O43526 whole entry): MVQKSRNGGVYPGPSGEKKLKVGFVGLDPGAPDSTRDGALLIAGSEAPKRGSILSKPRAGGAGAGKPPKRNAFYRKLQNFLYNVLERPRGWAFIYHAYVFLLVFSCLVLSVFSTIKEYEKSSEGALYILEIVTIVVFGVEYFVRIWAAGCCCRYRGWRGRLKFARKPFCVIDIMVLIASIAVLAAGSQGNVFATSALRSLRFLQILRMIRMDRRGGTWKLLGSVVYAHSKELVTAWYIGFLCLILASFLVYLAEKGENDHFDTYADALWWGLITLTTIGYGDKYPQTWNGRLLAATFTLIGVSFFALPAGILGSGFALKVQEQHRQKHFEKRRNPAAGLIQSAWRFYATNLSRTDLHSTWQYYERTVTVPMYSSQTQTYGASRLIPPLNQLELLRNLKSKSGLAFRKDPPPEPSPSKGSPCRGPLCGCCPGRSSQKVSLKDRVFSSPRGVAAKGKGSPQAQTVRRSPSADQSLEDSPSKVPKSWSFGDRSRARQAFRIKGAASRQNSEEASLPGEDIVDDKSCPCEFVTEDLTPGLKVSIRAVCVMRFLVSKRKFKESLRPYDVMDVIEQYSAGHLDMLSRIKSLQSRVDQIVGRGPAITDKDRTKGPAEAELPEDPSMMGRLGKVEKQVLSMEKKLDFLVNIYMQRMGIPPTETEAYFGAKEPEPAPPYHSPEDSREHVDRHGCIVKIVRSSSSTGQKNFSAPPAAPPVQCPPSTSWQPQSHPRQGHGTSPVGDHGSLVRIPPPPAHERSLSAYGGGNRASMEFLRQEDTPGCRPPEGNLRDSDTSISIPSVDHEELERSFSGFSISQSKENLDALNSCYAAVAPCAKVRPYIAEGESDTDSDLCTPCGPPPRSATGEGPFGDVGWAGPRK

In the case of “pore-mutated KV8.1(AAA) (from UniProt Q6PIU1 1-500) (natural protein)”, the current amplitude (patch clamp) in CHO cells co-transfected with KV8.1(AAA) and wild-type KV7.2 at a 1:1 ratio, relative to co-transfection of wild-type channels in test [1] was 49.4%. In addition, in test [2], the steady-state current density at +20 mV (patch clamp) in CHO cells co-transfected with KV8.1(AAA) and wild-type KV7.2 (4:1), relative to both wild-type constructs was 50%.

B1: KV8.1 G399R (natural protein)
chain: MPSSGRALLDSPLDSGSLTSLDSSVFCSEGEGEPLALGDCFTVNVGGSRFVLSQQALSCFPHTRLGKLAVVVASYRRPGALAAVPSPLELCDDANPVDNEYFFDRSSQAFRYVLHYYRTGRLHVMEQLCALSFLQEIQYWGIDELSIDSCCRDRYFRRKELSETLDFKKDTEDQESQHESEQDFSQGPCPTVRQKLWNILEKPGSSTAARIFGVISIIFVVVSIINMALMSAELSWLDLQLLEILEYVCISWFTGEFVLRFLCVRDRCRFLRKVPNIIDLLAILPFYITLLVESLSGSQTTQELENVGRIVQVLRLLRALRMLKLGRHSTGLRSLGMTITQCYEEVGLLLLFLSVGISIFSTVEYFAEQSIPDTTFTSVPCAWWWATTSMTTVGYRDIRPDTTTGKIVAFMCILSGILVLALPIAIINDRFSACYFTLKLKEAAVRQREALKKLTKNIATDSYISVNLRDVYARSIMEMLRLKGRERASTRSSGGDDFWF
B1 showed a current amplitude (patch clamp) in CHO cells co-transfected with KV8.1 G399R and wild-type KV7.2 (4:1), relative to both wild-type constructs in test [1] of 54%.

B2: KV8.1 W388G (natural protein)
chain: B1 chain with W385G, R396G
With B2, the current amplitude (patch clamp) in CHO cells co-transfected with KV8.1 W388G and wild-type KV7.2 (4:1), relative to both wild-type constructs in test [1] stood at 44.1%.
